T1: GST-hTERT-HA (C-terminal region, amino acid 946-1132, of hTERT), O14746
T1 chain: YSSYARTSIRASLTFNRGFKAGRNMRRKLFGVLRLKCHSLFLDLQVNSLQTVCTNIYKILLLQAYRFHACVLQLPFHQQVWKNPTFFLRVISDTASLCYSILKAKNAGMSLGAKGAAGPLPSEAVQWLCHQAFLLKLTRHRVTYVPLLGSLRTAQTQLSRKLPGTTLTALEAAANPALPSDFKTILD

B1: MKRN1-V5 (enzyme, not shown: small tags and cut ends)
chain: MAEAATPGTTATTSGAGAAAATAAAASPTPIPTVTAPSLGAGGGGGGSDGSGGGWTKQVTCRYFMHGVCKEGDNCRYSHDLSDSPYSVVCKYFQRGYCIYGDRCRYEHSKPLKQEEATATELTTKSSLAASSSLSSIVGPLVEMNTGEAESRNSNFATVGAGSEDWVNAIEFVPGQPYCGRTAPSCTEAPLQGSVTKEESEKEQTAVETKKQLCPYAAVGECRYGENCVYLHGDSCDMCGLQLLHPMDAAQRSQHIKSCIEAHEKDMELSFAVQRSKDMVCGICMEVVYEKANPSERRFGILSNCNHTYCLKCIRKWRSAKQFESKIIKSCPECRITSNFVIPSEYWVEEKEEKQKLILKYKEAMSNKACRYFDEGRGSCPFGGNCFYKHAYPDAGREEPQRQKVGTSSRYRAQRRNHFWELIEERENSNPFDNDEEEVVTFELGEMLLMLLAAGGDDELTDSEDEWDLFHDELEDFYDLDL
notes: Full-length MKRN1 expressed in transfected H1299 cells
B2: MKRN1^H307E-V5 (enzyme, not shown: small tags and cut ends)
chain: MAEAATPGTTATTSGAGAAAATAAAASPTPIPTVTAPSLGAGGGGGGSDGSGGGWTKQVTCRYFMHGVCKEGDNCRYSHDLSDSPYSVVCKYFQRGYCIYGDRCRYEHSKPLKQEEATATELTTKSSLAASSSLSSIVGPLVEMNTGEAESRNSNFATVGAGSEDWVNAIEFVPGQPYCGRTAPSCTEAPLQGSVTKEESEKEQTAVETKKQLCPYAAVGECRYGENCVYLHGDSCDMCGLQLLHPMDAAQRSQHIKSCIEAHEKDMELSFAVQRSKDMVCGICMEVVYEKANPSERRFGILSNCNETYCLKCIRKWRSAKQFESKIIKSCPECRITSNFVIPSEYWVEEKEEKQKLILKYKEAMSNKACRYFDEGRGSCPFGGNCFYKHAYPDAGREEPQRQKVGTSSRYRAQRRNHFWELIEERENSNPFDNDEEEVVTFELGEMLLMLLAAGGDDELTDSEDEWDLFHDELEDFYDLDL
notes: Expressed in transfected H1299 cells together with wild-type MKRN1-V5; also called hMKRN1^H307E

Legend:
[1] = molecular target: T2, Flag-hTERT (N-terminal Flag-tagged full-length hTERT) (human, UniProt O14746 1-1132); experiment: co-immunoprecipitation from H1299 cells (anti-Flag IP, anti-V5 immunoblot), with MG132
T2 construct: expressed in transfected H1299 cells; also called Flag-tagged hTERT
Method: Amino acid sequences surrounding the RING finger domain in MKRN1 and mutants used in this study. Cysteines and a histidine in the RING finger domain are shown in red. Mutated residue in MKRN1^H307E is shown in blue. (C) H1299 cells co-transfected with hTERT-HA and MKRN1 -V5 were either untreated or treated for 2 hours with 10 μg/ml ALLnN. Anti-HA immunoprecipitates were analyzed by immunoblotting using an anti-V5 antibody probe. […] (D) H1299 cells co-transfected with Flag-hTERT and MKRN1-V5 were either untreated or treated for 2 hours with 10 μM MG132. Anti-Flag immunoprecipitates were analyzed by immunoblotting using an anti-V5 antibody probe. […] Flag-hTERT was visualized with an anti-Flag antibody probe.
H1299 cells were transiently transfected with the expression vectors indicated in the figure legends using TransFast transfection reagent (Promega, Medison, Wis.) according to the manufacturer's instructions. Cells were lysed with buffer containing 0.5% NP-40, 50 mM Tris-HCl (pH 7.5), 150 mM NaCl, 2 mM phenyl methylsulphonyl fluoride. […] When ubiquitin conjugates of hTERT were detected, immunoprecipitation was performed with lysis buffer containing 0.1% SDS to dissociate its interacting proteins. […]

[2] = molecular target: T1, GST-hTERT-HA (C-terminal region, amino …)
[3] = molecular target: T2, Flag-hTERT (N-terminal Flag-tagged …); experiment: inferred from the dominant negative effect in the in vivo ubiquitination assay in H1299 cells
Method: H1299 cells were transiently transfected with the expression vectors indicated in the figure legends using TransFast transfection reagent (Promega, Medison, Wis.) according to the manufacturer's instructions. Cells were lysed with buffer containing 0.5% NP-40, 50 mM Tris-HCl (pH 7.5), 150 mM NaCl, 2 mM phenyl methylsulphonyl fluoride. After centrifugation at 12,000 rpm for 30 min, the supernatants were immunoprecipitated for 2 hours with anti-Flag (Sigma, St. Louis, Mo.) or anti-HA (Santa Cruz biotechnology, Santa Cruz, Calif.) antibodies and then incubated with Sepharose beads conjugated to Protein G (Amersham Biosciences Inc., Piscataway, N.J.). When ubiquitin conjugates of hTERT were detected, immunoprecipitation was performed with lysis buffer containing 0.1% SDS to dissociate its interacting proteins. Immunoblot analyses were performed using anti-hTERT (Santa Cruz biotechnology, Santa Cruz, Calif.), anti-V5 (Invitrogen, Carlsbad, Calif.), anti-HA, and anti-Flag antibodies.
To investigate whether MKRN1 contributes to the ubiqitination of hTERT in vivo, H1299 cells were cotransfected with Flag-hTERT, HA-ubiquitin, and MKRN1-V5 constructs, and immunoprecipitated with anti-Flag antibody followed by immunoblotting with anti-HA antibody. Ubiquitin conjugates of hTERT were easily detected in the presence of MG132 (FIG. 4B, lane 2 in upper blot). […]

| Binder | binding result [1] | in vitro ubiquitination assay (anti-HA immunoblot) [2] | binding result [3] |
| --- | --- | --- | --- |
| B1 | binds | the C-terminal domain (residues 946-1132) of hTERT was efficiently ubiquitinated by wild-type MKRN1 |  |
| B2 |  | but not by mutants MKRN1^307E or MKRN1^ΔC | binds |
